According to paper PMC7017353, “Delineating the Molecular Basis of the Calmodulin–bMunc13-2 Interaction by Cross-Linking/Mass Spectrometry—Evidence for a Novel CaM Binding Motif in bMunc13-2” (Cells, 2020):
Where no end group is shown, it is not given here. [ ]: non-standard residue; d: D form. Bpa = N[C@@H](Cc1ccc(C(=O)c2ccccc2)cc1)C(=O)O

Biological target: recombinant CaM (UniProt P0DP23 1-149)
Test: cross-linking; photoaffinity labelling (PAL)-based competition: CaM (5 µM) with segment-C-Bpa or segment-CS-Bpa (5 µM), competitor peptides 0–250 µM; 50 mM HEPES pH 7.2, 150 mM KCl, 5 mM DTT, 2 h RT, 200 µM Ca2+ or 2 mM EGTA; UV; SDS-PAGE and MALDI-TOF-MS
Conditions: both partners purified

CINN[Bpa]KNVLREKRLRQKKLLQELV (source: synthetic peptide) [Segment-CS-Bpa]: binds.
